Test results reported in publication PMC3516556.

Target: FLAG-GluK2 (UniProt P42260)
Assay: co-IP; COS-7 cells transfected with combinations of FLAG-GluK2, Neto2 or Neto2Δ7 and GRIP(PDZ4-7)-myc; lysates immunoprecipitated with an anti-GluK2 antibody, western blot

Sequence of UniProt P42260 (P42260 32-908): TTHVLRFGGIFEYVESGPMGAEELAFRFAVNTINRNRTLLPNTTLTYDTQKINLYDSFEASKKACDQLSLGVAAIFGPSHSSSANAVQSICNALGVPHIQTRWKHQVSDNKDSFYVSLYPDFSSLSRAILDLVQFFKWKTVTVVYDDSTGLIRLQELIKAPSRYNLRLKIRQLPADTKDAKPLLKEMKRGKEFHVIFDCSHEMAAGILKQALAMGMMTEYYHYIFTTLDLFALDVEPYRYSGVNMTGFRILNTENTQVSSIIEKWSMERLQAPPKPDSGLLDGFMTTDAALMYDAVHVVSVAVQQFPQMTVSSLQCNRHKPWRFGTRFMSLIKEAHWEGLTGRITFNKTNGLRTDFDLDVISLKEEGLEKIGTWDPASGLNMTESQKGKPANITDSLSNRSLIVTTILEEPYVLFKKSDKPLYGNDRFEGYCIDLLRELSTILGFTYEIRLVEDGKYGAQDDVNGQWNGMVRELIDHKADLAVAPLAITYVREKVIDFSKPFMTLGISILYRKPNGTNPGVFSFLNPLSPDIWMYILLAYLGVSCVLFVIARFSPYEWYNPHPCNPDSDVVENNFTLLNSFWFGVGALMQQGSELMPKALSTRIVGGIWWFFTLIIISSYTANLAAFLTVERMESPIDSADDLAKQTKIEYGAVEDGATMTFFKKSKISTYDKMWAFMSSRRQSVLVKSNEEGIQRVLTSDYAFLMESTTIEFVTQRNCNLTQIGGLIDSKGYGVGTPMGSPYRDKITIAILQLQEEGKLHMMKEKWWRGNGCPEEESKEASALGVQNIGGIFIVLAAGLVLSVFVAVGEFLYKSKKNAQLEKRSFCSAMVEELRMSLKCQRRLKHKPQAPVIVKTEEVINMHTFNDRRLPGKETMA

C-terminal myc-tagged GRIP(PDZ4-7) (domain or fragment)
amount coimmunoprecipitated with GluK2 when Neto2 is coexpressed, percent of signal in the absence of Neto2 (% of signal in the absence of Neto2): 250
amount coimmunoprecipitated with GluK2 when Neto2Δ7 is coexpressed, percent of signal in the absence of Neto2 (% of signal in the absence of Neto2): 103
